# US20050287542, “Protein binding miniature proteins” (published 2005)
# Columns and labels:
# G56 (GCN4 bZIP element) [1] = target: T1, G56 (GCN4 bZIP element) (UniProt P03069 P03069:226-281); assay: EMSA; ddG -2.6 kcal/mol; conditions: chain copies: 2 inferred; label: 32P
# G56 (GCN4 bZIP element) [2] = target: T1, G56 (GCN4 bZIP element); assay: EMSA; conditions: chain copies: 2 inferred; label: 32P
# T1 sequence (P03069 226-281, one chain of several): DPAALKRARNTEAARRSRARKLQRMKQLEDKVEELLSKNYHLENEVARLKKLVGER
Binder,binding signal (G56 (GCN4 bZIP element) [1]),binding signal (G56 (GCN4 bZIP element) [2])
CEBP24 (C/EBP24) (dsDNA) DNA 1: AGTGGAGATTGCGCAATCTCGTGC DNA 2: GCACGAGATTGCGCAATCTCCACT,118 fold specificity ratio for CRE24 over CEBP24,–
CRE24 (dsDNA) DNA 1: AGTGGAGATGACGTCATCTCGTGC DNA 2: GCACGAGATGACGTCATCTCCACT,–,118 fold preference over CEBP24
